Drawing on publication PMC5840397 (2018), this text covers Kd for one molecule.

Usually Kd stands for a measure of binding affinity in units of concentration. Higher therefore signals lower affinity.

This experiment addresses T1, C-terminally His-tagged human ECRG4(32–148) (human, UniProt Q9H1Z8 32-148).
T1 chain: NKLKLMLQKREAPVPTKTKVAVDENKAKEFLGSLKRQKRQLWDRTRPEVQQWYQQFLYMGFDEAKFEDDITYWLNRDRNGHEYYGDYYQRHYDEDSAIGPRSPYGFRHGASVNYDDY
In words: SPR. Background: SPR reads the build-up and loss of mass on a sensor chip optically.

B1: 2 × CTLD–Fc (two human LOX-1 CTLDs in tandem, Fc-fused) (Fc fusion)
chain: not shown
With B1, binding was put at a Kd of 14.2 nM.
